Test results reported in patent publication US20040039175.

Tested on: HIV-AB-KOX (synthetic construct)
Assay: cell_activity
Settings: LTR-luciferase, Jurkat, Tat+PMA+PHA

**Q.** “AGCTTTCTACAAGGGACTTTCCGCTGGGGACTTTCCAGGGAGGCGTGGCCTGGGCGGGACTGGGGAGTGGCGTCCCTCAGATGCTGCATATAAGCAGCTGCTTTTTGCCTGTACTGGGTCTCTCTGGTTAGACCAGATCTGAGCCTGGGAGCTCTCTGGCTAACTAGGGAACCC (double strand) [HIV-1 LTR reporter]” was tested. Which activity did it give?
**A.** 96 % inhibition
